Measurements taken from US20250042997A1 (PHYLAXIS BIOSCIENCE, published 2025).
Residue numbers refer to the chain shown, from its start. Like-named read-outs stand apart in the source and are kept apart here.

Tests used:
[1] = molecular target: T1, human Siglec-8 (full-length, on transfected CHO or 293 cells, or native on human eosinophils) (human, UniProt Q9NYZ4 17-499); experiment: cell-based or functional assay
[2] = molecular target: T1, human Siglec-8 (full-length, on …); experiment: flow cytometry on CHO cells transfected with human Siglec-8; labelled anti-human Fc-gamma secondary; Median RL1-H
Procedure: In additional studies, the parental llama G2 sequence was humanized and multivalent hzSiglec8-G2v14-Fc antibodies were cloned with a reduced effector function xELL human Fe. Binding of bivalent (ex11422; SEQ ID NO: 5 linked to an Fe xELL via linker 2), tetravalent (cx11580; SEQ ID NO: 9 linked to an Fe xELL via linker 2), and hexavalent (cx11579; SEQ ID NO: 10 linked to an Fe xELL via linker 2) hzSiglec8-G2v14-Fc antibodies were assessed by flow cytometry using CHO cells transfected with human Siglec-8. A titration series of the fusion proteins were incubated with the Siglec8-expressing CHO cells (5×10⁴ cells/well) for 30 minutes at 4° C. in FACS Buffer (PBS 1% BSA, 0.1% NaN3 pH 7.4) in 96 well plates. Following one 150 μL wash with FACS buffer, an APC-conjugated anti-human Fcγ specific secondary antibody (Jackson ImmunoResearch) was added, and cells were incubated for 30 minutes at 4° C. Following one additional wash in FACS buffer, bound antibodies were detected via flow cytometry (iQue Intellicyte).
The calculated affinity was similar between the bivalent, tetravalent, and hexavalent hzSiglec8-G2v14-Fc antibodies. The observed Bmax was reduced with increasing valency as anticipated, due the fact that the Fc portion of the antibody was detected in this assay and the ratio of Fc regions to anti-Siglec-8 binding domains is inverse to valency.

[3] = molecular target: T1, human Siglec-8 (full-length, on …); experiment: flow cytometry on CHO cells transiently transfected with full-length human Siglec-8; A647 anti-human Fc-gamma secondary; Mean RL1-H
Procedure: (§1) Binding of the anti-human Siglec-8 VHHs, B12, D1, E2, and G2, as a bivalent VHH-hIgG1-xELL-Fc (VHH of SEQ ID NO: 49, 55, 61, and 1, respectively linked to an Fe xELL via linker 2, these constructs are also designated cx8982, cx8983, cx8984, and cx10382, respectively) was determined by flow cytometry using CHO cells that had been transiently transfected with full-length human Siglec-8. Binding specificity was assessed using untransfected (UT) CHO cells as a control. For the binding assays, 50,000 Siglec-8 CHOs or UT CHOs were seeded in a 96-well plate and a titration of anti-Siglec8-VHH-xELL was added in FACS Buffer (PBS 1% BSA, 0.1% NaN3 pH 7.4) incubating for 30 minutes at 4° C. After washing, the plates were incubated with an A647-conjugated anti-human Fcγ specific secondary antibody (Jackson ImmunoResearch) diluted 1:2000 in FACS buffer for 30 minutes at 4° C. The plates were washed, and binding was determined by flow cytometry quantitating anti-human A647 mean fluorescent intensity using an Intellicyt iQue Plus.
(§2) The binding was specific to Siglec-8 as there was no detectable binding to untransfected CHO cells for any of the tested constructs.

[4] = molecular target: T1, human Siglec-8 (full-length, on …); experiment: flow cytometry on human eosinophils (CD16- CCR3+) from whole blood; anti-human AF647 secondary; MFI
Text: To determine if increasing the valency of Siglec-8 antibodies could enhance agonist activity, the parental llama B12, D1 and E2 VHH sequences were used to generate tetravalent (Tet-B12 (cx8467; SEQ ID NO:50 linked to an Fe), Tet-D1 (cx8469; SEQ ID NO:56 linked to an Fe), and Tet-E2 (cx8463; SEQ ID NO:62 linked to an Fc)) and hexavalent (Hex-B12 (cx8466; SEQ ID NO:51 linked to an Fe), Hex-D1 (cx8523; SEQ ID NO:57 linked to an Fe), and Hex-E2 (cx8522; SEQ ID NO:165 linked to an Fc)), Siglec8-VHH-Fc antibodies linked to a reduced effector function xELL human Fc region via linker 2. The bivalent (Bi-B12 (cx8982), Bi-D1 (cx8983) and Bi-E2 (cx8984)), tetravalent, and hexavalent Siglec8-VHH-Fc antibodies were assessed by flow cytometry for binding to eosinophils (CD16⁻ CCR3⁺). Cells were isolated from whole blood by centrifugation, washed twice with 2% FBS PBS, and resuspended in 1×RBC lysis buffer for 10 minutes at room temperature (RT), washed once in 2% FBS PBS and treated with a second RBC lysis step and washed twice with 2% FBS. Cells were seeded at 200 k/well and resuspended in Human FC block for 10 minutes at RT. Cells were spun down and then resuspended in titrated test articles starting at 200 nM 1:4 and incubated for 30 minutes at 4° C. before being washed twice and resuspended in secondary mixture (2*; anti-CCR3 FITC, anti-human AF647, PI, anti-CD16 BV605) and incubated for 30 minutes at 4° C., washed twice, and bound antibodies were detected via flow cytometry (Novocyte).
As shown in FIG. 2A-2C, bivalent, tetravalent, and hexavalent Siglec8-VHH-Fc antibodies B12 (FIG. 2A), D1 (FIG. 2B) and E2 (FIG. 2C) bound to eosinophils. The calculated affinity was similar between the bivalent, tetravalent, and hexavalent hzSiglec8-VHH-Fc antibodies. The observed Bmax was reduced with increasing valency as anticipated, due the fact that the Fc portion of the antibody was detected in this assay and the ratio of Fc regions to anti-Siglec-8 binding domains is inverse to valency. No binding was observed on other granulocyte populations (CD16⁺ CCR3⁻).

[5] = molecular target: T1, human Siglec-8 (full-length, on …); experiment: flow cytometry, CHO cells transiently transfected with full-length human Siglec-8 (apparent affinity)
Procedure: as §1, §2

[6] = molecular target: T1, human Siglec-8 (full-length, on …); experiment: flow cytometry on 293 cells transiently transfected with full-length human Siglec-8; A647 anti-human Fc-gamma secondary; median fluorescence, nonlinear fit; table under the graph (Kd column without unit, concentration axis nM Ab)
Procedure: (§3) The binding of the lmG2 and humanized versions (further including Siglec8 hzG2v14), formatted as monomeric VHH-hIgG1 fusions proteins using a non-dimerizing human IgG1 Fe variant region lacking a hinge Fe NNT, was assessed by flow cytometry using 293 cells that had been transiently transfected with full-length human Siglec-8 and detected with an anti-human AF647 secondary antibody. Binding specificity was assessed using untransfected 293 cells as a control. For the binding assays, Siglec-8 293 cells or untransformed 293 cells were seeded in a 96 well U-bottom plate with 50 k cells/well in FACS buffer and incubated at 4° C. with a titration of anti-Siglec8-VHH-NNT for 30 minutes. After washing, the plates were incubated with an A647-conjugated anti-human Fcγ specific secondary antibody diluted 1:10,000 in FACS buffer for 20 minutes at 4° C. The plates were washed, and binding was determined by flow cytometry quantitating anti-human A647 median fluorescent intensity. The maximum specific binding (Bmax) and affinity (Kd) for was determined from the flow cytometry binding data using a nonlinear fit model.

[7] = molecular target: T1, human Siglec-8 (full-length, on …); experiment: as above; remark: listed apart in the source
Procedure: as §3

[8] = molecular target: T1, human Siglec-8 (full-length, on …); experiment: flow cytometry on 293 cells transiently transfected with full-length human Siglec-8; A647 anti-human Fc-gamma secondary; median fluorescence, nonlinear fit; table under the graph
Procedure: as §3

[9] = molecular target: T1, human Siglec-8 (full-length, on …); experiment: as above; remark: listed apart in the source
Procedure: as §3

[10] = molecular target: T1, human Siglec-8 (full-length, on …); experiment: as above; remark: listed apart in the source
Procedure: as §3

[11] = molecular target: T1, human Siglec-8 (full-length, on …); experiment: flow cytometry on 293 cells transiently transfected with full-length human Siglec-8; A647 anti-human Fc-gamma secondary; median fluorescence, nonlinear fit; table under the graph (Kd column without unit, concentration axis nM Ab); remark: listed apart in the source
Procedure: as §3

T1 sequence (Q9NYZ4 17-499): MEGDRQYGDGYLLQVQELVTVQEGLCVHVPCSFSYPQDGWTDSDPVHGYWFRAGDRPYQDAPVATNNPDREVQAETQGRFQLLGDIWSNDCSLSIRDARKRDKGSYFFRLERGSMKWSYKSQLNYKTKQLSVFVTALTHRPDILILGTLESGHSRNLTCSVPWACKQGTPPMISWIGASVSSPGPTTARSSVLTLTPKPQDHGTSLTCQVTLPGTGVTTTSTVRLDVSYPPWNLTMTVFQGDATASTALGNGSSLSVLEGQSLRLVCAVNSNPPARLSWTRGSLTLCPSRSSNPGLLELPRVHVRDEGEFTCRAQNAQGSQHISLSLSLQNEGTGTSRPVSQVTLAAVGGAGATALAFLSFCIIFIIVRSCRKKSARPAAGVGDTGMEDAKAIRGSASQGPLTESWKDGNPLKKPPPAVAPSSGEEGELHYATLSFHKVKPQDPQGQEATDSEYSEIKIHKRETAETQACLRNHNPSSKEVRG

B1: tetravalent hzSiglec8-G2v14-Fc (xELL) (Fc fusion)
chain: EVQLLESGGGEVQPGGSLRLSCAASGSISIFSMYVVAWYRQAPGKEREWVAFIQRGGTANYAESAKGRFTISRDNAKNTVYLQMSSLRAEDTAVYYCNYINTDNEIGGPWGQGTLVTVKPGGSGGSEVQLLESGGGEVQPGGSLRLSCAASGSISIFSMYVVAWYRQAPGKEREWVAFIQRGGTANYAESAKGRFTISRDNAKNTVYLQMSSLRAEDTAVYYCNYINTDNEIGGPWGQGTLVTVKPGGGGDKTHTCPPCPAPGGPSVFLFPPKPKDTLMISRTPEVTCVVVDVSHEDPEVKFNWYVDGVEVHNAKTKPREEQYNSTYRVVSVLTVLHQDWLNGKEYKCKVSNKALPAPIEKTISKAKGQPREPQVYTLPPSRDELTKNQVSLTCLVKGFYPSDIAVEWESNGQPENNYKTTPPVLDSDGSFFLYSKLTVDKSRWQQGNVFSCSVMHEALHNHYTQKSLSLSPGK
notes: Homodimer through the Fc; also called cx11580
- potency of eosinophil killing in the presence of IL-5, fold improvement over the afucosylated AK002 analog [1]: ~30 fold
- potency of eosinophil killing in the presence of IL-5, fold increase compared to bivalent hzSiglec8-G2v14-Fc [1]: 10 fold
- EC50 (read off the curve) [2]: ~40 pM

B2: anti-Siglec8-E2-xELL, bivalent VHH-hIgG1-xELL-Fc (Fc fusion)
chain: QVQLVESGGGLVQPGGSLRLSCATSGIIFTSNVINWYRQAPGKQREFVAFITSITSGQSTMYADAVKGRFTVSRDNDKNIGYLQMTSLQPEDTARYVCNVGAYWGQGTQVTVKPGGGGDKTHTCPPCPAPGGPSVFLFPPKPKDTLMISRTPEVTCVVVDVSHEDPEVKFNWYVDGVEVHNAKTKPREEQYNSTYRVVSVLTVLHQDWLNGKEYKCKVSNKALPAPIEKTISKAKGQPREPQVYTLPPSRDELTKNQVSLTCLVKGFYPSDIAVEWESNGQPENNYKTTPPVLDSDGSFFLYSKLTVDKSRWQQGNVFSCSVMHEALHNHYTQKSLSLSPGK
notes: Homodimer through the Fc; also called cx8984; Bi-E2
- EC50 (read off the curve) [3]: ~400 pM
- EC50 (read off the curve) [4]: ~100 pM
- Kd [5]: 331 pM

B3: hexavalent hzSiglec8-G2v14-Fc (xELL) (Fc fusion)
chain: EVQLLESGGGEVQPGGSLRLSCAASGSISIFSMYVVAWYRQAPGKEREWVAFIQRGGTANYAESAKGRFTISRDNAKNTVYLQMSSLRAEDTAVYYCNYINTDNEIGGPWGQGTLVTVKPGGSGGSEVQLLESGGGEVQPGGSLRLSCAASGSISIFSMYVVAWYRQAPGKEREWVAFIQRGGTANYAESAKGRFTISRDNAKNTVYLQMSSLRAEDTAVYYCNYINTDNEIGGPWGQGTLVTVKPGGSGGSEVQLLESGGGEVQPGGSLRLSCAASGSISIFSMYVVAWYRQAPGKEREWVAFIQRGGTANYAESAKGRFTISRDNAKNTVYLQMSSLRAEDTAVYYCNYINTDNEIGGPWGQGTLVTVKPGGGGDKTHTCPPCPAPGGPSVFLFPPKPKDTLMISRTPEVTCVVVDVSHEDPEVKFNWYVDGVEVHNAKTKPREEQYNSTYRVVSVLTVLHQDWLNGKEYKCKVSNKALPAPIEKTISKAKGQPREPQVYTLPPSRDELTKNQVSLTCLVKGFYPSDIAVEWESNGQPENNYKTTPPVLDSDGSFFLYSKLTVDKSRWQQGNVFSCSVMHEALHNHYTQKSLSLSPGK
notes: Homodimer through the Fc; also called cx11579
- EC50 (read off the curve) [2]: ~20 pM

B4: llama anti-Siglec8-G2 VHH (lmG2), monomeric VHH-hIgG1 fusion (Fc NNT) (Fc fusion)
chain: QVTLKESGGGLVRTGGSLRLSCAASGSISIFSMYVVAWYRQAPGKQREWVAFIQRGGTANYADSAKGRFTISRDNAKNTVYLQMASLKPDDTAVYYCNYINSDNEIGGPWGQGTQVTVKP
notes: Monomeric format; also called parental clone; not shown: non-dimerizing human IgG1 Fc variant lacking a hinge (Fc NNT)
- Kd [6]: 124 pM
- Kd [7]: 114 pM
- Bmax [8]: 1.28e+06 Median (anti-human A647)
- Bmax [9]: 1.36e+06 Median (anti-human A647)
- Bmax [10]: 1.15e+06 Median (anti-human A647)
- Kd [11]: 63.7 pM

B5: Siglec8 hzG2v32, monomeric VHH-hIgG1 fusion (Fc NNT) (Fc fusion)
chain: B4 chain with Q1E, T3Q, K5L, L11E, R13Q, D63E, A85S, K88R, D90E, Q115L
notes: Monomeric format; not shown: non-dimerizing human IgG1 Fc variant lacking a hinge (Fc NNT)
- Bmax [10]: 1.45e+06 Median (anti-human A647)
- Kd [11]: 64.3 pM

B6: Siglec8 hzG2v33, monomeric VHH-hIgG1 fusion (Fc NNT) (Fc fusion)
chain: B4 chain with Q1E, T3Q, K5L, L11E, R13Q, D63E, A85S, K88R, P89A, Q115L
notes: as for B5
- Bmax [10]: 1.39e+06 Median (anti-human A647)
- Kd [11]: 97.9 pM
